Source: patent US20260258149A1 (BIONTECH, published 2026)
Values joined by “and” are separate entries in the source; they are usually repeats but may differ in a detail not shown here. Identical values can stand only once.

How the values were obtained:
[1] = biological target: T1, Bovine Submaxillary Mucin (BSM) (bovine); assay: ELISA on BSM, OD against antibody concentration
T1 construct: Glycoprotein carrier of STn; also called BSM mucin; non-biotinylated BSM

[2] = biological target: T1, Bovine Submaxillary Mucin (BSM); assay: ELISA on BSM-coated wells (3 ug/mL), normalised dose response
Description: (§1) In order to evaluate the antibody binding to the target antigen STn, we employed an in vitro assay using a mucin that naturally expresses STn: Bovine Submaxillary Mucin (BSM). The humanized variants (V1, V2 and V3) were incubated using BSM-coated wells and binding was evaluated using ELISA assay.
(§2) An ELISA-assay was performed using Bovine Submaxillary Mucin (BSM). 96 well plates were coated using BSM [3 ug/mL], dissolved in 1×PBS. Absorbance was detected using a microplate reader at 450 nm. Absorbance values were normalized against the background and plotted as a % of the dose response effect versus the antibody dose (log scale) as shown in the graph. The EC50 (in ug/mL) was calculated for each condition.

[3] = biological target: T1, Bovine Submaxillary Mucin (BSM); assay: ELISA on BSM-coated wells
Description: as §1, §2

Row | EC50 (read off the curve) [1] [µg/mL] | EC50 [2] | fold decrease in EC50 compared to V1 and V3 clones [3] [fold] | Binder
1 | ~0.2 | 0.324 µg/mL and 0.457 µg/mL | – | humanized anti-STn antibody clone V1 (antibody, V domains shown, Humanized variant of L2A5; Variable domains were cloned into Absolute Antibody vectors 'of the appropriate species and type' and expressed in HEK 293; also called CBS-V1) VH: QVQLQESGPGLVKPSQTLSLTCTVIGYSITSGYYWNWIRQPPGKGLEWIGSINYDGSNIYNPSLKSRVTISRDTSKNQFSLKLSSVTAADTAVYYCARGGDYWGQGTTVTVSS VL: EIVLTQSPATLSLSPGERATLSCSASSSVSYMHWFQQKPGQAPRRWIYDTSKRATGVPARFSGSGSGTDYTLTISSLEPEDFAAYYCQQWSSDPPMLTFGGGTKLEIK
2 | – | 0.344 µg/mL and 0.449 µg/mL | – | humanized anti-STn antibody clone V3 (antibody, V domains shown, Humanized variant of L2A5) VH: QVQLQESGPGLVKPSQTLSLTCSVIGYSITSGYYWNWIRQPPGKGLEWIGSINYDGSNIYNPSLKDRVTISRDTSKNQFSLKLSSVTAADTAVYYCARGGDYWGQGTTVTVSS VL: EIVLTQSPATLSLSPGERATLSCSASSSVSYMHWFQQKPGQAPRRWIYDTSKRATGVPARFSGSGSGTDYTLTISSLEPEDFAAYYCQQWSSDPPMLTFGGGTKLEIK
3 | – | 0.0665 µg/mL and 0.137 µg/mL | 3 | humanized anti-STn antibody clone V2 (antibody, V domains shown, Humanized variant of L2A5; also called CBS-V2) VH: QVQLQESGPGLVKPSQTLSLTCSVIGYSITSGYYWNWIRQPPGKGLEWIGSINYDGSNIYNPSLKDRVTISRDTSKNQFSLKLSSVTAADTAVYYCARGGDYWGQGTTVTVSS VL: DIVLTQSPAILSLSPGERATLSCSASSSVSYMHWFQQKSGQAPKRWIYDTSKLASGVPARFSGSGSGTDYTLTISSLEAEDFAAYYCQQWSSDPPMLTFGGGTKLEIK
